Reference: the supplement of paper PMC7125110
± gives the standard error. Fewer inactive variants are shown than the library holds.

B1: glmS ribozyme (parent)
chain: AUAAAAGCGCCAGAACUACAGAAAUGUAGUUGACGAGGAGGAGGUUUAUCGAAUUUUCGGCGGAUGCCUCCAAA

Legend:
Conditions in all cases: with glucosamine-6-phosphate
glucosamine-6-phosphate [1] = variants of: B1; assay: self-cleavage kobs at 40 uM GlcN6P; higher = faster cleavage; RNA array
Summary of the method: (§1)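 Barcoded ribozyme variants on sequenced MiSeq chips were transcribed in situ by E. coli RNA polymerase and followed at 37 °C through a hybridised Cy3 probe. Glucosamine-6-phosphate at 40 μM to 10 mM in HEPES/KCl/Mg(OAc)2 buffer was flowed in, and tiles were imaged over ~14 h. Signals were normalised to baseline and to non-cleaving reference variants, and per-tile medians were fit to one- or two-exponential decays to give kobs. Weighted Michaelis–Menten fits across concentrations gave kcat and KM.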

glucosamine-6-phosphate [2] = variants of: B1; assay: self-cleavage kobs at 160 uM GlcN6P; higher = faster cleavage; RNA array
Summary of the method: as §1

glucosamine-6-phosphate [3] = variants of: B1; assay: self-cleavage kobs at 640 uM GlcN6P; higher = faster cleavage; RNA array
Summary of the method: as §1

glucosamine-6-phosphate [4] = variants of: B1; assay: self-cleavage kobs at 2500 uM GlcN6P; higher = faster cleavage; RNA array
Summary of the method: as §1

glucosamine-6-phosphate [5] = variants of: B1; assay: self-cleavage kobs at 10000 uM GlcN6P; higher = faster cleavage; RNA array
Summary of the method: as §1

G32A A53U U65C was tested, and the “self-cleavage kobs at 40 uM GlcN6P” value (glucosamine-6-phosphate [1]) was < 1e-05 s⁻¹, the “self-cleavage kobs at 160 uM GlcN6P” value (glucosamine-6-phosphate [2]) was < 1e-05 s⁻¹ and the “self-cleavage kobs at 640 uM GlcN6P” value (glucosamine-6-phosphate [3]) was < 1e-05 s⁻¹.

With C34A G37U the “self-cleavage kobs at 40 uM GlcN6P” value (glucosamine-6-phosphate [1]) was < 1e-05 s⁻¹, the “self-cleavage kobs at 160 uM GlcN6P” value (glucosamine-6-phosphate [2]) was < 1e-05 s⁻¹ and the “self-cleavage kobs at 2500 uM GlcN6P” value (glucosamine-6-phosphate [4]) was < 1e-05 s⁻¹.

In the case of A33G G40U U49C, the “self-cleavage kobs at 40 uM GlcN6P” value (glucosamine-6-phosphate [1]) is reported as < 1e-05 s⁻¹ and the “self-cleavage kobs at 10000 uM GlcN6P” value (glucosamine-6-phosphate [5]) is reported as < 1e-05 s⁻¹.

In the case of A33U C34U, the “self-cleavage kobs at 40 uM GlcN6P” value (glucosamine-6-phosphate [1]) is reported as < 1e-05 s⁻¹, the “self-cleavage kobs at 160 uM GlcN6P” value (glucosamine-6-phosphate [2]) is reported as < 1e-05 s⁻¹ and the “self-cleavage kobs at 640 uM GlcN6P” value (glucosamine-6-phosphate [3]) is reported as < 1e-05 s⁻¹. The “self-cleavage kobs at 10000 uM GlcN6P” value (glucosamine-6-phosphate [5]) was < 1e-05 s⁻¹.

In the case of G32U G63U C71A, the “self-cleavage kobs at 40 uM GlcN6P” value (glucosamine-6-phosphate [1]) is reported as < 1e-05 s⁻¹, the “self-cleavage kobs at 640 uM GlcN6P” value (glucosamine-6-phosphate [3]) is reported as < 1e-05 s⁻¹ and the “self-cleavage kobs at 10000 uM GlcN6P” value (glucosamine-6-phosphate [5]) is reported as < 1e-05 s⁻¹.

For A33U C61U C70G, the “self-cleavage kobs at 40 uM GlcN6P” value (glucosamine-6-phosphate [1]) was < 1e-05 s⁻¹.

For C34A G62A, the “self-cleavage kobs at 40 uM GlcN6P” value (glucosamine-6-phosphate [1]) was < 1e-05 s⁻¹, the “self-cleavage kobs at 160 uM GlcN6P” value (glucosamine-6-phosphate [2]) was < 1e-05 s⁻¹ and the “self-cleavage kobs at 640 uM GlcN6P” value (glucosamine-6-phosphate [3]) was < 1e-05 s⁻¹. The “self-cleavage kobs at 2500 uM GlcN6P” value (glucosamine-6-phosphate [4]) was < 1e-05 s⁻¹ and the “self-cleavage kobs at 10000 uM GlcN6P” value (glucosamine-6-phosphate [5]) was < 1e-05 s⁻¹.

With C34A A36G the “self-cleavage kobs at 40 uM GlcN6P” value (glucosamine-6-phosphate [1]) was < 1e-05 s⁻¹, the “self-cleavage kobs at 160 uM GlcN6P” value (glucosamine-6-phosphate [2]) was < 1e-05 s⁻¹ and the “self-cleavage kobs at 640 uM GlcN6P” value (glucosamine-6-phosphate [3]) was < 1e-05 s⁻¹. The “self-cleavage kobs at 2500 uM GlcN6P” value (glucosamine-6-phosphate [4]) was < 1e-05 s⁻¹ and the “self-cleavage kobs at 10000 uM GlcN6P” value (glucosamine-6-phosphate [5]) was < 1e-05 s⁻¹.

For A33G G44C, the “self-cleavage kobs at 40 uM GlcN6P” value (glucosamine-6-phosphate [1]) was < 1e-05 s⁻¹, the “self-cleavage kobs at 160 uM GlcN6P” value (glucosamine-6-phosphate [2]) was < 1e-05 s⁻¹ and the “self-cleavage kobs at 640 uM GlcN6P” value (glucosamine-6-phosphate [3]) was < 1e-05 s⁻¹. For the same variant, the “self-cleavage kobs at 2500 uM GlcN6P” value (glucosamine-6-phosphate [4]) was < 1e-05 s⁻¹ and the “self-cleavage kobs at 10000 uM GlcN6P” value (glucosamine-6-phosphate [5]) was < 1e-05 s⁻¹.

G32A C67G C70U was tested, and the “self-cleavage kobs at 40 uM GlcN6P” value (glucosamine-6-phosphate [1]) was < 1e-05 s⁻¹.

G32C U47C was tested, and the “self-cleavage kobs at 40 uM GlcN6P” value (glucosamine-6-phosphate [1]) was < 1e-05 s⁻¹ and the “self-cleavage kobs at 160 uM GlcN6P” value (glucosamine-6-phosphate [2]) was < 1e-05 s⁻¹.

For U31G A36G U69A, the “self-cleavage kobs at 40 uM GlcN6P” value (glucosamine-6-phosphate [1]) was < 1e-05 s⁻¹ and the “self-cleavage kobs at 10000 uM GlcN6P” value (glucosamine-6-phosphate [5]) was < 1e-05 s⁻¹.

In the case of U31C U69C C70A, the “self-cleavage kobs at 40 uM GlcN6P” value (glucosamine-6-phosphate [1]) is reported as < 1e-05 s⁻¹.

In the case of U31C U45A G60A C67A, the “self-cleavage kobs at 40 uM GlcN6P” value (glucosamine-6-phosphate [1]) is reported as < 1e-05 s⁻¹ and the “self-cleavage kobs at 160 uM GlcN6P” value (glucosamine-6-phosphate [2]) is reported as < 1e-05 s⁻¹.

For U31A U55G, the “self-cleavage kobs at 40 uM GlcN6P” value (glucosamine-6-phosphate [1]) was 0.000331 ± 5.6e-05 s⁻¹, the “self-cleavage kobs at 160 uM GlcN6P” value (glucosamine-6-phosphate [2]) was 0.000659 ± 9.3e-05 s⁻¹ and the “self-cleavage kobs at 640 uM GlcN6P” value (glucosamine-6-phosphate [3]) was 0.0036 ± 0.00064 s⁻¹. The “self-cleavage kobs at 2500 uM GlcN6P” value (glucosamine-6-phosphate [4]) was 0.00546 ± 0.0012 s⁻¹ and the “self-cleavage kobs at 10000 uM GlcN6P” value (glucosamine-6-phosphate [5]) was 0.0123 ± 0.0044 s⁻¹.

For C34A G60U C68A, the “self-cleavage kobs at 40 uM GlcN6P” value (glucosamine-6-phosphate [1]) was < 1e-05 s⁻¹, the “self-cleavage kobs at 640 uM GlcN6P” value (glucosamine-6-phosphate [3]) was < 1e-05 s⁻¹ and the “self-cleavage kobs at 2500 uM GlcN6P” value (glucosamine-6-phosphate [4]) was < 1e-05 s⁻¹.

A33U C50G C71G was tested, and the “self-cleavage kobs at 40 uM GlcN6P” value (glucosamine-6-phosphate [1]) was 0.000128 ± 2.3e-05 s⁻¹ and the “self-cleavage kobs at 10000 uM GlcN6P” value (glucosamine-6-phosphate [5]) was 0.0002 ± 4.2e-05 s⁻¹.

In the case of G32U G40U U46C U54G C70G, the “self-cleavage kobs at 40 uM GlcN6P” value (glucosamine-6-phosphate [1]) is reported as < 1e-05 s⁻¹.

In the case of A33U G37C U45C A64C, the “self-cleavage kobs at 40 uM GlcN6P” value (glucosamine-6-phosphate [1]) is reported as < 1e-05 s⁻¹ and the “self-cleavage kobs at 10000 uM GlcN6P” value (glucosamine-6-phosphate [5]) is reported as < 1e-05 s⁻¹.

For G32U A52G C68G, the “self-cleavage kobs at 40 uM GlcN6P” value (glucosamine-6-phosphate [1]) was 0.000277 ± 9.2e-05 s⁻¹ and the “self-cleavage kobs at 10000 uM GlcN6P” value (glucosamine-6-phosphate [5]) was 0.000398 ± 9.5e-05 s⁻¹.

For G32A A33C C68G C71G, the “self-cleavage kobs at 40 uM GlcN6P” value (glucosamine-6-phosphate [1]) was 5.72e-05 ± 1.6e-05 s⁻¹ and the “self-cleavage kobs at 10000 uM GlcN6P” value (glucosamine-6-phosphate [5]) was 8.64e-05 ± 2e-05 s⁻¹.

For U30G U31G U46G U55A, the “self-cleavage kobs at 40 uM GlcN6P” value (glucosamine-6-phosphate [1]) was 0.000118 ± 3.3e-05 s⁻¹ and the “self-cleavage kobs at 10000 uM GlcN6P” value (glucosamine-6-phosphate [5]) was 0.00358 ± 0.00067 s⁻¹.

U31A C61A A64U was tested, and the “self-cleavage kobs at 40 uM GlcN6P” value (glucosamine-6-phosphate [1]) was < 1e-05 s⁻¹ and the “self-cleavage kobs at 10000 uM GlcN6P” value (glucosamine-6-phosphate [5]) was < 1e-05 s⁻¹.

In the case of G32U U69G, the “self-cleavage kobs at 40 uM GlcN6P” value (glucosamine-6-phosphate [1]) is reported as 7.55e-05 ± 1.7e-05 s⁻¹, the “self-cleavage kobs at 640 uM GlcN6P” value (glucosamine-6-phosphate [3]) is reported as 0.000345 ± 8.4e-05 s⁻¹ and the “self-cleavage kobs at 10000 uM GlcN6P” value (glucosamine-6-phosphate [5]) is reported as 9.29e-05 ± 1.7e-05 s⁻¹.
